Results from article PMC2915760.

Substrate: O=[N+]([O-])c1ccc(OP(=O)(O)O)cc1
Test: purified protein

B1: Lyp (lymphoid-specific protein tyrosine phosphatase, PTPN22), wild-type (Homo sapiens) (protein)
chain: MDQREILQKFLDEAQSKKITKEEFANEFLKLKRQSTKYKADKTYPTTVAEKPKNIKKNRYKDILPYDYSRVELSLITSDEDSSYINANFIKGVYGPKAYIATQGPLSTTLLDFWRMIWEYSVLIIVMACMEYEMGKKKCERYWAEPGEMQLEFGPFSVSCEAEKRKSDYIIRTLKVKFNSETRTIYQFHYKNWPDHDVPSSIDPILELIWDVRCYQEDDSVPICIHCSAGCGRTGVICAIDYTWMLLKDGIIPENFSVFSLIREMRTQRPSLVQTQEQYELVYNAVLELFKRQM
In the case of B1, the Km is reported as 4.86 ± 0.39 mM.
